Consider six molecules from article PMC4609964, “Combination of six enzymes of a marine Novosphingobium converts the stereoisomers of β-O-4 lignin model dimers into the respective monomers” (Scientific Reports, 2015).

The test system of data set [1] is COc1ccc(C(=O)C(CO)Oc2ccccc2OC)cc1OC. Kind of data set: purified protein. The note with it: GSH co-substrate, optimal pH 7−8, 40 °C (determined with MPHPV).
The subject of data set [2] is COc1cc(C(=O)C(CO)Oc2ccccc2OC)ccc1O. The experiment in a line: purified protein. The note with it: GSH co-substrate, optimal pH 7−8, 40 °C, 1:1 β(R)/β(S) mixture (acts on β(R)).
In data set [3] the target is T1, GST6 (Novosphingobium sp. MBES04, UniProt A0A0S6WVQ1).
T1 construct: gene MBENS4_2530; N-terminal His6 tag (pRSET A), E. coli BL21(DE3), His-tag resin purified
T1 sequence (A0A0S6WVQ1 1-283): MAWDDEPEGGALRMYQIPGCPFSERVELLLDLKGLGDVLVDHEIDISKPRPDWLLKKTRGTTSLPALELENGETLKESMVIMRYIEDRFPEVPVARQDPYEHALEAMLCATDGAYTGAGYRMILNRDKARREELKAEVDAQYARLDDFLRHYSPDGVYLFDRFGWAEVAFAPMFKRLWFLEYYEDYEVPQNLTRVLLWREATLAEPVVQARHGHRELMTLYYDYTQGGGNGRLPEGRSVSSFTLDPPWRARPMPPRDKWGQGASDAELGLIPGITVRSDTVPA
The experiment in a line: chiral HPLC of glutathione removal to GHP. Format: biochemical. The note with it: […] °C, […] h, both conjugates (formed by GST4 and by GST5).

For data set [4], the target named is T2, GST3 (Novosphingobium sp. MBES04, UniProt A0A0S6WZT0).
T2 construct: gene MBENS4_2527; N-terminal His6 tag (pRSET A), E. coli BL21(DE3), His-tag resin purified
T2 sequence (A0A0S6WZT0 1-226): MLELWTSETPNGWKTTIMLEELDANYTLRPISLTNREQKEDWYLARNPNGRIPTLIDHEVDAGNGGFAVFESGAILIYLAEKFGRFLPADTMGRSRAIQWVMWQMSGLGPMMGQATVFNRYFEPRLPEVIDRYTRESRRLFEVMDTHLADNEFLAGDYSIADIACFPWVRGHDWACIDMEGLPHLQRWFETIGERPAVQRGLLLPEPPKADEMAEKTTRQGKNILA
Kind of data set: chiral HPLC of glutathione removal to GHP. It counts as biochemical. The settings on record: glutathione 2.0 mM; 25 °C, 16 h; both conjugates (formed by GST4 and by GST5).

The test system of data set [5] is COc1ccc(C(O)C(CO)Oc2ccccc2OC)cc1OC. Kind of data set: purified protein. The note with it: NAD cofactor.
Data set [6] addresses T2, GST3. Kind of data set: conventional GST assay (specific activity). The note with it: glutathione co-substrate. It counts as biochemical.
Substrate in data set [7]: COc1ccc(C(=O)C(CO)Oc2ccccc2OC)cc1OC
Kind of data set: purified protein. Format: biochemical, Novosphingobium sp. MBES04. The settings on record: GSH co-substrate, optimal pH 9, 35 °C (determined with MPHPV).

Substrate in data set [8]: COc1cc(C(=O)C(CO)Oc2ccccc2OC)ccc1O
The experiment in a line: purified protein. The note with it: GSH co-substrate, optimal pH 9, 35 °C, 1:1 β(R)/β(S) mixture (acts on β(S)). It counts as biochemical, Novosphingobium sp. MBES04.

Setting [9] is: optimal conditions (pH 9, 15 °C).
[10] abbreviates: optimal conditions (pH 9–10, 30 °C).

What is called Km is the concentration of substrate that gives half-maximal velocity. By kcat is commonly meant the number of substrate molecules converted per active site and unit of time at saturation. By kcat/Km is commonly meant the turnover number divided by the Michaelis constant. As for GST5 (Novosphingobium sp. MBES04), in data set [1], the Km is 0.78 mM, the kcat worked out at 9.5 min⁻¹ and the kcat/Km was 200 M⁻¹ s⁻¹. Moreover, in data set [2], the Km turned out to be 0.29 mM, the kcat amounted to 3.5 min⁻¹ and the catalytic efficiency (kcat/Km) was 200 M⁻¹ s⁻¹.
As for `COc1cc(C(=O)C(CO)SC[C@H](NC(=O)CC[C@H](N)C(=O)O)C(=O)NCC(=O)O)ccc1O` (stereo partly drawn) [GS-GHP], the “chiral HPLC of glutathione removal to GHP” value in data set [3] was “the removal of glutathione from both glutathione conjugates of GHP produced by GST4 and GST5”; in data set [4] it was “the removal of glutathione from both glutathione conjugates of GHP produced by GST4 and GST5”.
As to SDR3 (Novosphingobium sp. MBES04), in data set [5] (setting [9]), the Michaelis constant (Km) was 1.5 mM, the turnover number (kcat) worked out at 3.9 min⁻¹ and the specificity constant (kcat/Km) stood at 41.7 M⁻¹ s⁻¹.
SDR5 (Novosphingobium sp. MBES04): in data set [5] (setting [10]), the Km is 1.1 mM, the kcat was determined as 1400 min⁻¹ and the kcat/Km came out at 21700 M⁻¹ s⁻¹.
In the case of `O=[N+]([O-])c1ccc(Cl)c([N+](=O)[O-])c1` [CDNB], the “conventional GST assay (specific activity)” value in data set [6] is on record as “the activity of GST3 towards 1-chloro-2,4-dinitrobenzene (CDNB)”.

B1: GST4 (Novosphingobium sp. MBES04) (protein)
chain: MLTLYSFGPGANSLKPLLALYEKGLEFTPRFVDPTKFEHHEEWFKKINPRGQVPALDHDGNVITESTVICEYLEDAFPDAPRLRPTDPVQIAEMRVWTKWVDEYFCWCVSTIGWERGIGPMARALSDEEFEEKVKRIPIPEQQAKWRSARAGFPKEVLDEEMRKIRVSIDRLEKRLSESTWLAGEDYTLADICNFAIANGMEKGFDDIVNTAATPNLVAWIERINARPACIEMFAKSKSEFAARKPFAKSEEQAQA
notes: N-terminal His6 tag (pRSET A), E. coli BL21(DE3), His-tag resin purified
Regarding B1, in data set [7], the Km came to 0.55 mM, the kcat turned out to be 18 min⁻¹ and the catalytic efficiency (kcat/Km) came to 533 M⁻¹ s⁻¹. Besides, in data set [8], the Km came out at 0.47 mM, the kcat turned out to be 45 min⁻¹ and the specificity constant (kcat/Km) was determined as 1580 M⁻¹ s⁻¹.
